Experiment [1] addresses hDLL4 site2. Briefly: SPR; N-EGF3. (In general: Surface plasmon resonance follows binding to a sensor surface in real time, without labels.)
The target in experiment [2] is DLL4.v3. Briefly: SPR; N-EGF3.
For experiment [3], the target named is T1, Notch2 EGF domains 6-13 (human, UniProt Q04721 221-530).
T1 chain: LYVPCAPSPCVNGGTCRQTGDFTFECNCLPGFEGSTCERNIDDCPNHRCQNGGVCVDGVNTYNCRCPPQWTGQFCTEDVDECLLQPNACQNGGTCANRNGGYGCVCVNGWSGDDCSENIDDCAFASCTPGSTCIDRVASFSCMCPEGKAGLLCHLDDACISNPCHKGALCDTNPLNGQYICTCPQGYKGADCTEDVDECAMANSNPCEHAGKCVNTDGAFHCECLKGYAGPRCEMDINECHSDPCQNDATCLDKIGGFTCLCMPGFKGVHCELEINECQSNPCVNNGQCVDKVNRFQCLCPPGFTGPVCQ
Put plainly: SPR.

Experiment [4] has as its target T2, Notch1 EGF domains 6-13 (human, UniProt P46531 218-526).
T2 chain: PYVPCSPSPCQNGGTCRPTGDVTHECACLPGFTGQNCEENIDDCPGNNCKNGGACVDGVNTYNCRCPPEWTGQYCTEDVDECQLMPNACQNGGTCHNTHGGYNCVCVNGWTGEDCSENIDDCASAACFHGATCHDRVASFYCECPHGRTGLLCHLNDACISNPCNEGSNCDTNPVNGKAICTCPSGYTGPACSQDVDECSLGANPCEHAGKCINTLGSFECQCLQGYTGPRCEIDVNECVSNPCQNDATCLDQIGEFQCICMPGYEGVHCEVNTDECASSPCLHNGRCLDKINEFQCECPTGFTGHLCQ
Put plainly: SPR.

Experiment [5] has as its target T3, Notch 3 EGF domains 5-12 (human, UniProt Q9UM47 197-505).
T3 chain: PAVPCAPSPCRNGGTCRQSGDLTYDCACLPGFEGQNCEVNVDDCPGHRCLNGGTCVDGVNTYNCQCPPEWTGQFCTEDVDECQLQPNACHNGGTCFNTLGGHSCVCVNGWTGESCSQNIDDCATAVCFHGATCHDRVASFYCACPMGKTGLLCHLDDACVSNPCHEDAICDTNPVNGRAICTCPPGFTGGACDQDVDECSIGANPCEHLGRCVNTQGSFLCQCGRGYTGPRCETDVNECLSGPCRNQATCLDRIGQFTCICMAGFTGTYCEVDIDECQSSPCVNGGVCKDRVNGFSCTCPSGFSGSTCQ
Put plainly: SPR.

Experiment [6] concerns the target T1, Notch2 EGF domains 6-13. Briefly: SPR; N-EGF3.
Experiment [7] addresses T2, Notch1 EGF domains 6-13. Briefly: SPR; N-EGF3.
Experiment [8] deals with T3, Notch 3 EGF domains 5-12. Put plainly: SPR; N-EGF3.

B1: hNotch1 (EGF6-13) (receptor)
chain: T2 chain
With B1, the Kd – broadly, a measure of binding affinity in units of concentration – was determined as 0.471 µM in experiment [1] and 0.02 µM in experiment [2].

B2: hNotch2 (EGF6-13) (receptor)
chain: T1 chain
On to B2, for which the Kd is 3.25 µM in experiment [1] and 0.0314 µM in experiment [2].

B3: wildtype (WT) human DLL4 (ligand)
chain: SGVFQLQLQEFINERGVLASGRPCEPGCRTFFRVCLKHFQAVVSPGPCTFGTVSTPVLGTNSFAVRDDSSGGGRNPLQLPFNFTWPGTFSLIIEAWHAPGDDLRPEALPPDALISKIAIQGSLAVGQNWLLDEQTSTLTRLRYSYRVICSDNYYGDNCSRLCKKRNDHFGHYVCQPDGNLSCLPGWTGEYCQQPICLSGCHEQNGYCSKPAECLCRPGWQGRLCNECIPHNGCRHGTCSTPWQCTCDEGWGGLFCDQDLNYCTHHSPCKNGATCSNSGQRSYTCTCRPGYTGVDCE
In the case of B3, the Kd is 4.99 µM in experiment [3]; 4.04 µM in experiment [4]; 10.4 µM in experiment [5]; 35.7 µM in experiment [6]; 17.9 µM in experiment [7]; 22.2 µM in experiment [8].

B4: hNotch 3 (EGF6-13) (receptor)
chain: T3 chain
For B4, the Kd in experiment [1] came out at 1.65 µM; in experiment [2], 0.0273 µM.

The values are drawn from patent US20220348617A1 (published 2022).
